Earlier results as cited in publication PMC6451932.

Target: fibrinogen β peptide (Fgβ) (Homo sapiens) (UniProt P02675)

SdrG (from UniProt Q9KI13)
Kd: 0.3 µM
